Source: PMC12686569, “FaMYB63 and FvWYRKY75 Activate FvPR10.14 Boosting Strawberry Immunity Against Powdery Mildew”

Target: FvWRKY75 (Fragaria vesca, UniProt A0A1S5SLB0 1-190)
Experiment: EMSA; EMSA Kit (Beyotime), according to Wang, Shi, et al. 2022; buffer, salt, pH and temperature not stated
Conditions: protein: recombinant; tags: His (as stated); blunt

Chain of FvWRKY75 (A0A1S5SLB0 entry or part of it): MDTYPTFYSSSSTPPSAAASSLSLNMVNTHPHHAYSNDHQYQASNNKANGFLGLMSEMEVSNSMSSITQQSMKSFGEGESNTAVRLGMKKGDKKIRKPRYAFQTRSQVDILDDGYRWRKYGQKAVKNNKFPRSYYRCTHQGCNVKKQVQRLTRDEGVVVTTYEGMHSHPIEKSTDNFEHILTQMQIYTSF

B1: FvPR10.14-P (FvWRKY75 probe) (dsDNA)
DNA 1: ATATATGGGATAGCCAATGTTGACTGCTCGACATTACGTGTATA
DNA 2: TATACACGTAATGTCGAGCAGTCAACATTGGCTATCCCATATAT
binding result: binds
